Reference: patent publication EP1391213A1

Target: human CD44v6 (CD44 splice variant containing the domain v6) on antigen-positive FaDu cells (human) (UniProt P16070)
Assay: flow cytometry (FACS) on FaDu cells, FITC-labeled anti-human IgG detection, on ice

Chain of UniProt P16070 (P16070 21-742, change not shown): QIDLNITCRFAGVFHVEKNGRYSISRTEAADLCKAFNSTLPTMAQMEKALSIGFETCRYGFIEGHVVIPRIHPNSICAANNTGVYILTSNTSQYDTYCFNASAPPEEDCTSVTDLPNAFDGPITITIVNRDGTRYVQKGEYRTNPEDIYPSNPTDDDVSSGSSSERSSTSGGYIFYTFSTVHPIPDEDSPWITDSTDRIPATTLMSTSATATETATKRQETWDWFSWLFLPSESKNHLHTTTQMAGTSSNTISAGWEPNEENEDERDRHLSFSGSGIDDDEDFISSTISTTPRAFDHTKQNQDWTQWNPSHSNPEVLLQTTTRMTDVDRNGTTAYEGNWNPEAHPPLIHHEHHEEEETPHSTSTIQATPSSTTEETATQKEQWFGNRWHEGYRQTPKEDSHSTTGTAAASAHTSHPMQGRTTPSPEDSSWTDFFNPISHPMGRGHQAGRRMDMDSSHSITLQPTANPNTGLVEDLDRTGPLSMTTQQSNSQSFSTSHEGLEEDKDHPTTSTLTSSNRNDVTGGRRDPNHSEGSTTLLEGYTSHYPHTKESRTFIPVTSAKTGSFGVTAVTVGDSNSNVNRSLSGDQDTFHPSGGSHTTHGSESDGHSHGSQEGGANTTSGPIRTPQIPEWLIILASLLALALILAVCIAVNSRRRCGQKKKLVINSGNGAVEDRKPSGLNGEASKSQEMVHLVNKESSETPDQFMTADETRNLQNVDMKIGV

Kd	Binder
1 nM	BIWA 4 (antibody, human IgG1, kappa, V domains shown) VH: EVQLVESGGGLVKPGGSLRLSCAASGFTFSSYDMSWVRQAPGKGLEWVSTISSGGSYTYYLDSIKGRFTISRDNAKNSLYLQMNSLRAEDTAVYYCARQGLDYWGRGTLVTVSS VL: EIVLTQSPATLSLSPGERATLSCSASSSINYIYWYQQKPGQAPRLLIYLTSNLASGVPARFSGSGSGTDFTLTISSLEPEDFAVYYCLQWSSNPLTFGGGTKVEIKR
1.8 nM	BIWI 1 (antibody, human IgG1, kappa, V domains shown, maytansinoid DM1 linked by a disulfide bond through the SPP-derived thiopentanoate linker; DM1/MAb ratio 3.1 (average for the whole antibody); attachment residues not stated) VH: EVQLVESGGGLVKPGGSLRLSCAASGFTFSSYDMSWVRQAPGKGLEWVSTISSGGSYTYYLDSIKGRFTISRDNAKNSLYLQMNSLRAEDTAVYYCARQGLDYWGRGTLVTVSS VL: EIVLTQSPATLSLSPGERATLSCSASSSINYIYWYQQKPGQAPRLLIYLTSNLASGVPARFSGSGSGTDFTLTISSLEPEDFAVYYCLQWSSNPLTFGGGTKVEIKR
